B1: Mouse 5E5 (antibody, V domains shown)
VH: QVQLQQSDAELVKPGSSVKISCKASGYTFTDHAIHWVKQKPEQGLEWIGHFSPGNTDIKYNDKFKGKATLTVDRSSSTAYMQLNSLTSEDSAVYFCKTSTFFFDYWGQGTTLTVSS
VL: DIVMTQSPSSLTVTAGEKVTMICKSSQSLLNSGDQKNYLTWYQQKPGQPPKLLIFWASTRESGVPDRFTGSGSGTDFTLTISSVQAEDLAVYYCQNDYSYPLTFGAGTKLELK
notes: V regions were subcloned into pFUSE-CHIg-hG1 (human IgG1) and pFUSE2-CLIg-hk (human kappa) vectors and expressed in HEK293 cells; also called mouse 5E5 antibody; 5E5VH/5E5VK
B2: Ab5 (antibody, human IgG1, V domains shown)
VH: EVQLVQSGAEVKKPGESLKISCKISGYIFTDHAIHWVRQMPGKGLEWMGHFSPGNTDIKYNDKFKGQVTLSVDRSINTAYLQWSSLKASDTAIYFCKTSTFFFDYWGQGTRVTVSS
VL: DIVMTQSPLSLPVTPGEPASISCKSSQSLLNSGDQKNYLTWYLQKPGQSPQLLIYWASTRESGVPDRFSGSGSGTDFTLKISRVEAEDVGVYYCQNDYSYPLTFGGGTKVEIK
notes: Expressed as human IgG1/kappa from pFUSE-CHIg-hG1 and pFUSE2-CLIg-hk vectors; also called 5E5RHB10 / 5E5RKB
B3: Ab6 (antibody, human IgG1, V domains shown)
VH: EVQLVESGAEVKKPGASVEVSCQASGYTFTDHAIHWVRQAPGQGLEWMGHFSPGNTDIKYNDKFKGRVTMTVDRSINTAYMELRRLRSDDTAVYYCKTSTFFFDYWGQGTMVTVSS
VL: B2 VL
notes: Expressed as human IgG1/kappa from pFUSE-CHIg-hG1 and pFUSE2-CLIg-hk vectors; also called 5E5RHC9 / 5E5RKB
B4: Ab4 (antibody, human IgG1, V domains shown)
VH: QVQLVQSGAEVKKTGSSVKVSCKASGYTFTDHAIHWVRQAPGQALEWMGHFSPGNTDIKYNDKFKGRVTLTVDRSMSTAYMELSSLRSEDTAMYYCKTSTFFFDYWGQGTMVTVSS
VL: B2 VL
notes: Expressed as human IgG1/kappa from pFUSE-CHIg-hG1 and pFUSE2-CLIg-hk vectors; also called 5E5RHA8 / 5E5RKB
B5: Ab2 (antibody, V domains shown)
VH: B2 VH
VL: DIVMTQSPDSLAVSLGERATINCKSSQSLLNSGDQKNYLTWYQQKPGQPPKLLIYWASTRESGVPDRFSGSGSGTDFTLTISSLQAEDVAVYYCQNDYSYPLTFGQGTKVEIK
notes: Expressed as human IgG1/kappa from pFUSE-CHIg-hG1 and pFUSE2-CLIg-hk vectors; also called 5E5RHB10 / 5E5RKA
B6: Ab1 (antibody, V domains shown)
VH: B4 VH
VL: B5 VL
notes: Expressed as human IgG1/kappa from pFUSE-CHIg-hG1 and pFUSE2-CLIg-hk vectors; also called 5E5RHA8 / 5E5RKA
B7: Ab3 (antibody, V domains shown)
VH: B3 VH
VL: B5 VL
notes: Expressed as human IgG1/kappa from pFUSE-CHIg-hG1 and pFUSE2-CLIg-hk vectors; also called 5E5RHC9 / 5E5RKA

These binders were tested against T1, 16TR-MUC1-Tn (human, UniProt P15941 126-445, limits assumed, Tn glycoform (GalNAcα1-O-Ser/Thr); glycosylated sites of the reagent not stated) (assay: Tn-MUC1 binding ELISA (protocol 4), plate-coated 16TR-MUC1-Tn).
T1 construct: domain: 16TR; also called Tn-MUC1; TnMUC1
T1 sequence (P15941 126-445 limits assumed): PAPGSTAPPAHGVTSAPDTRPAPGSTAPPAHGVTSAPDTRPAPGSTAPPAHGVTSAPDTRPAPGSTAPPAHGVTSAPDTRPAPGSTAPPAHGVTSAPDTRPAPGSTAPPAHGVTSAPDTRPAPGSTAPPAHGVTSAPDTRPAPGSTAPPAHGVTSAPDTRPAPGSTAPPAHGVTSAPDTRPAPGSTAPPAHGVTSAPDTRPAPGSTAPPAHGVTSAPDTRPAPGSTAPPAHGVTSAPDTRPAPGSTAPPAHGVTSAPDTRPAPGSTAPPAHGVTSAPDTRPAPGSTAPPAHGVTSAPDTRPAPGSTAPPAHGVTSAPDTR

Row | Binder | EC50 [µg/mL]
1 | B1 | 0.0311
2 | B2 | 0.0269
3 | B3 | 0.0198
4 | B4 | 0.0755
5 | B5 | 0.0345
6 | B6 | 0.0246
7 | B7 | 0.0615
